Reference: patent US20230227577A1 (MYTHIC THERAPEUTICS, published 2023)

Assays:
[1] = molecular target: T1, recombinant human DLL3 protein (human, UniProt Q9NYJ7 27-492, limits assumed); test: SPR, control: individual binding construct
T1 construct: also called rhu DLL3; human biotinylated DLL3
T1 sequence (looked up): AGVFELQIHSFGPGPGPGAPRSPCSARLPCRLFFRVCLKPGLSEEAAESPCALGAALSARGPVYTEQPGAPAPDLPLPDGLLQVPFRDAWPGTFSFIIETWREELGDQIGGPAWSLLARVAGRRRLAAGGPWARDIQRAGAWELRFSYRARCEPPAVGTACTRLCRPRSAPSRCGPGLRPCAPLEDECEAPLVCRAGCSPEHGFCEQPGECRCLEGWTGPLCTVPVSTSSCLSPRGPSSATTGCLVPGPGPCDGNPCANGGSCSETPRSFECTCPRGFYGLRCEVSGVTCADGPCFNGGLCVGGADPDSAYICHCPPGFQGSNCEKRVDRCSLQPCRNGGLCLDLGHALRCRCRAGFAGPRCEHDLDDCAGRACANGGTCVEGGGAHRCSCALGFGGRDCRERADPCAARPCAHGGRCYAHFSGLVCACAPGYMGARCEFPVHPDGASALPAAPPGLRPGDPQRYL
Description: Surface Plasmon Resonance (SPR) was used to assess the binding kinetics and binding affinity. Kinetic rate coefficients were recovered from binding analysis experiments performed with a Biacore 3000 biosensor. Concentrations of the anti-DLL3/anti-CD3/anti-HSA trispecific binding construct ranging from 1.23 nM to 300 nM were run against the SPR sensorgram surfaces immobilized with recombinant human CD3 (rhu CD3) or recombinant HSA (rHSA). Concentrations of recombinant human DLL3 (rhu DLL3) ranging from 1.23 nM to 100 nM were run against the SPR sensorgram surface immobilized with the anti-DLL3/anti-CD3/anti-HSA trispecific binding construct. The association and dissociation phase data were globally fit to a 1:1 model to determine the association rate coefficient (kₒₙ), dissociation rate coefficient (koff), the Rmax value, and the dissociation constant (KD). Results were reported as the global fits to 1:1 model±standard error. The control groups were the three corresponding individual binding constructs. All three antigen binding domains in the trispecific binding construct retain binding to the corresponding antigen.

[2] = molecular target: T2, DLL3 target antigen coated on Octet SA tips (binning experiment) (Homo sapiens (Human), UniProt Q9NYJ7 27-492, Probably biotinylated for capture on streptavidin (SA) tips. The site is not stated.); test: Octet binning on DLL3-coated SA tips; competitor: 3HCE4
T2 sequence: T1 sequence (looked up)
Description: (§1) Antibody binning experiments were carried out for 5 anti-DLL3 VHHs and an anti-human DLL3 BiTE (SEQ ID NO: 756). The target antigen was coated on a series of Octet SA tips. Each series of tips was first soaked in a periplasmic extract containing one specific VHH. After the response signals reached saturation, the tips were transferred to a mix of PEs containing again the first VHH (at the same concentration) plus a different VHH (termed secondary VHH) for each tip of the series. Secondary VHH that still bind the target antigen in the presence of the first VHH will show an increased response, as compared to the binding response of the first VHH alone. This was repeated for each VHH as primary VHH until all VHH were tested against each other in both directions (as primary and as secondary binder). From the response data, the bins were deduced for each VHH. 2HCE117 and 3HCE4 show competition with the human DLL3 BiTEs, whereas 3HCE56 and 3HCE87 show a partial competition.

[3] = molecular target: T2, DLL3 target antigen coated on Octet SA …; test: Octet binning on DLL3-coated SA tips; competitor: 2HCE27
Description: as §1

[4] = molecular target: T2, DLL3 target antigen coated on Octet SA …; test: Octet binning on DLL3-coated SA tips; competitor: 3HCE56
Description: as §1

[5] = molecular target: T2, DLL3 target antigen coated on Octet SA …; test: Octet binning on DLL3-coated SA tips; competitor: 3HCE87
Description: as §1

[6] = molecular target: T2, DLL3 target antigen coated on Octet SA …; test: Octet binning on DLL3-coated SA tips; competitor: 2HCE117
Description: as §1

[7] = molecular target: T2, DLL3 target antigen coated on Octet SA …; test: Octet binning on DLL3-coated SA tips; competitor: DLL3 BiTEs
Description: as §1

[8] = molecular target: T1, recombinant human DLL3 protein; test: Fortebio Octet Red, DLL3 immobilised on tips, dilution series of the VHH, 1:1 binding model; koff error 6.05E-07; Full R2 0.9994
Description: Additional experiments were carried out to further characterize the binding properties of the anti-DLL3 constructs. Binding properties tested include dissociation constant (KD), off-rate (koff), binding to DLL3 protein by ELISA and binding to CHO cells expressing human, cyno or mouse DLL3. To obtain off-rate (koff), human biotinylated DLL3 was immobilized on Octet SA tips, and cynomolgus or mouse DLL3 was immobilized on Octet AR2G tips. For each DLL3 protein, the binding to a dilution series of each anti-DLL3 construct was measured using Fortebio Octet Red. The dissociation constant (KD), off-rate (koff) and other kinetic parameters for each anti-DLL3 construct were calculated using a 1:1 binding model. In addition, binding of these anti-DLL3 constructs to CHO cells expressing human, cyno or mouse DLL3 protein was analyzed using flow cytometry (FACS).

- Kd [1]: 7.89 nM
- koff [1]: 0.00064 s⁻¹
- kon [1]: 80000 M⁻¹ s⁻¹
- binning response (unit not given) [2]: 53.4
- binning response (unit not given) [3]: 0
- binning response (unit not given) [4]: 6500
- binning response (unit not given) [5]: 87.5
- binning response (unit not given) [6]: 19900
- binning response (unit not given) [7]: 83.4
- koff [8]: 0.000638 s⁻¹
B1: 2HCE27 anti-DLL3 VHH (VHH)
VHH: QVQLQESGGGLVQAGGSLRLSCAASGRTFRSYAMGWFRQAPGKEREFIAVIIMSDGSTSYADSVKGRFTISRDNAKNTLYLQMNSLKPEDTAVYYCAARRDYFTGVYDYWGQGTQVTVSS
notes: In the binning assay it was used as a periplasmic extract; also called anti-DLL3 (2HCE27)
